The values below come from the supplement of paper PMC10567573.

± gives the standard deviation.

The nature of this series: protein stability index of a GFP-peptide fusion (GPS, HEK-293T) (PSI 1-6); higher = more stable. Particulars: c terminus: a fixed tail appended.
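Further: 24-mer peptide tiles fused after GFP, lentivirally expressed, FACS-sorted into six equal bins by GFP/DsRed ratio, decoded by Illumina sequencing, PSI is the read-weighted mean bin number.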

Regarding SINVMKQLIGSSNLFVMQVEMDIY [GMCL1], the protein stability index is, setting by setting: (treatment: DMSO) 2.98 ± 0.49; (treatment: MLN4924 1 uM, 8 h) 2.82 ± 0.73.

Take SIPLERIHFDSYITCVSGAIVDLI [FBXO33]: the protein stability index by setting is: (treatment: DMSO) 2.44 ± 0.42; (treatment: MLN4924 1 uM, 8 h) 2.26 ± 0.42.

In the case of SIQWPGKRSSRRVQRHNSFSPNSP [NECAB1], the protein stability index (treatment: DMSO) was 3.54 ± 0.27 and the protein stability index (treatment: MLN4924 1 uM, 8 h) came to 3.62 ± 0.23.

On to SIYGIPHSTLEYKVKERLGTLKNP [LCOR], for which the protein stability index is, setting by setting: (treatment: DMSO) 3.12 ± 0.31; (treatment: MLN4924 1 uM, 8 h) 3.2 ± 0.52.

For SKAGPTRIFTSNTHSSVVLQGFDQ [KLHL13], the protein stability index reads like this: (treatment: DMSO) 3.53 ± 0.32; (treatment: MLN4924 1 uM, 8 h) 3.32 ± 0.12.

For SLENTLTESEAHYSSQLSQVQSLI [KRT34], the protein stability index by setting is: (treatment: DMSO) 3.32 ± 0.093; (treatment: MLN4924 1 uM, 8 h) 3.42 ± 0.31.

As for SLMDLAIEEGFNPVQASQLEEEFD [NFE2L1], the protein stability index was 5.35 ± 0.35 (treatment: DMSO) and 5.49 ± 0.12 (treatment: MLN4924 1 uM, 8 h).

Regarding SLQFDEKCLSIMLAEWEANPLICP [RPAIN], the protein stability index amounted to 2.33 ± 0.24 (treatment: DMSO) and 2.29 ± 0.18 (treatment: MLN4924 1 uM, 8 h).

With SLRKGASLSNGQGSRVLHVVQTLY [NCK2], the protein stability index is 2.29 ± 0.26 (treatment: DMSO) and 2.57 ± 0.11 (treatment: MLN4924 1 uM, 8 h).

For the sequence SLRKSNTLCDVTLRVEQKDFPAHR [KLHL12], the protein stability index was 3.58 ± 0.3 (treatment: DMSO) and 3.91 ± 0.38 (treatment: MLN4924 1 uM, 8 h).

For SMAMEYFDEKIVPILKRKLPGSDV [FBXO28], the protein stability index came out at 3 ± 0.22 (treatment: DMSO) and 3.25 ± 0.073 (treatment: MLN4924 1 uM, 8 h).

In the case of SMEVFTHYDLLNLNGTKVAEGHKA [LOXL2], the protein stability index reads like this: (treatment: DMSO) 4.39 ± 0.16; (treatment: MLN4924 1 uM, 8 h) 3.85 ± 0.42.

Turning to SMLSKNPEDRPSLDDIIRHDFFLQ [PLK2], the protein stability index reads like this: (treatment: DMSO) 3 ± 0.21; (treatment: MLN4924 1 uM, 8 h) 3.19 ± 0.32.

Take SNGFPERDPPRPGPSRPAEKPPRP [GCH1]: the protein stability index is, setting by setting: (treatment: DMSO) 5 ± 0.1; (treatment: MLN4924 1 uM, 8 h) 4.99 ± 0.082.

For SNPNGNGGFMGYSAENIPGCSSSG [CRY1], the protein stability index worked out at 4.57 ± 0.24 (treatment: DMSO) and 4.34 ± 0.35 (treatment: MLN4924 1 uM, 8 h).

As for SNSEKAKNIFRIRFHDPSPAQSHT [NET1], the protein stability index (treatment: DMSO) turned out to be 3.13 ± 0.2 and the protein stability index (treatment: MLN4924 1 uM, 8 h) stood at 3.06 ± 0.37.

Regarding SPVVAMTSRRSGVGLAVVNGQLMA [KLHL20], the protein stability index by setting is: (treatment: DMSO) 2.88 ± 0.36; (treatment: MLN4924 1 uM, 8 h) 2.95 ± 0.43.

Regarding SQITDSEHNSSLVSQQTGSPGKQP [ZNF8], the protein stability index stood at 5.33 ± 0.16 (treatment: DMSO) and 5.26 ± 0.23 (treatment: MLN4924 1 uM, 8 h).

In the case of SQLSVLSLSGVMLTDVSPEPLQAL [PRAME], the protein stability index runs as follows: (treatment: DMSO) 2.36 ± 0.37; (treatment: MLN4924 1 uM, 8 h) 2.4 ± 0.3.

On to SRIYGQAMAIINGSLYVFGGTTGY [KLHDC10], for which the protein stability index runs as follows: (treatment: DMSO) 2.92 ± 0.3; (treatment: MLN4924 1 uM, 8 h) 2.87 ± 0.6.

In the case of SRRREQSSSRNSHLVQHQHPNSRK [ZNF8], the protein stability index was 5.14 ± 0.46 (treatment: DMSO) and 5.41 ± 0.075 (treatment: MLN4924 1 uM, 8 h).

Regarding SSGHQNRRFSSEDLEDPLGGLLSY [FBF1], the protein stability index was 3.6 ± 0.48 (treatment: DMSO) and 3.89 ± 0.36 (treatment: MLN4924 1 uM, 8 h).

SSGLQDVTGPDNGVRESETEQGFG [NFE2L1] gave a protein stability index (treatment: DMSO) of 5.6 ± 0.17 and a protein stability index (treatment: MLN4924 1 uM, 8 h) of 5.39 ± 0.35.

SSIGRLFGKKEKGRLIQLSRDGAT [PPFIA4] yielded a protein stability index (treatment: DMSO) of 3.19 ± 0.48 and a protein stability index (treatment: MLN4924 1 uM, 8 h) of 3.38 ± 0.54.

As for SSLEFTELLTLVNRKVSQRRVDFC [CASP6], the protein stability index stood at 2.37 ± 0.43 (treatment: DMSO) and 2.32 ± 0.087 (treatment: MLN4924 1 uM, 8 h).

As for SSPVDLVTATDQKVEKMLISSIKE [IMPA1], the protein stability index stood at 4.38 ± 0.15 (treatment: DMSO) and 4.28 ± 0.1 (treatment: MLN4924 1 uM, 8 h).

SSSSGPGHGEPDVLKDELQLYGDA [TMEM40]: the protein stability index by setting is: (treatment: DMSO) 5.3 ± 0.15; (treatment: MLN4924 1 uM, 8 h) 5.32 ± 0.19.

Regarding SSSVSISHSASATGNVCIEEIDVD [LMNB1], the protein stability index was found to be 5.38 ± 0.15 (treatment: DMSO) and 5.4 ± 0.21 (treatment: MLN4924 1 uM, 8 h).

SSTGNTALTYACAGGYVDVVKVLL [ANKRD17]: the protein stability index by setting is: (treatment: DMSO) 2.07 ± 0.55; (treatment: MLN4924 1 uM, 8 h) 2.23 ± 0.3.

With SSWDIDGRATKRRKKSGDLKKAKV [FBXO34], the protein stability index runs as follows: (treatment: DMSO) 4.8 ± 0.29; (treatment: MLN4924 1 uM, 8 h) 4.79 ± 0.11.

As for STGTSRWPSAKSAGWTLATLGEQG [SCNN1D], the protein stability index runs as follows: (treatment: DMSO) 3.17 ± 0.16; (treatment: MLN4924 1 uM, 8 h) 3.16 ± 0.31.

STMRRMALRPTAFSGCLNCSKVSE [EMID1]: the protein stability index runs as follows: (treatment: DMSO) 2.5 ± 0.21; (treatment: MLN4924 1 uM, 8 h) 3.13 ± 0.62.

As to STSLSFLDSCNSLTPKSTPVKTLP [MYBL2], the protein stability index turned out to be 3.9 ± 0.13 (treatment: DMSO) and 3.97 ± 0.36 (treatment: MLN4924 1 uM, 8 h).

SVKIPVRNHGILMETHKELKPLLS [LYSMD4]: the protein stability index (treatment: DMSO) worked out at 2.86 ± 0.13 and the protein stability index (treatment: MLN4924 1 uM, 8 h) was 3.17 ± 0.36.

As for SVLMGHGVCMGLVAAACACGFTVA [OR10K2], the protein stability index came out at 2.9 ± 0.45 (treatment: DMSO) and 3.08 ± 0.41 (treatment: MLN4924 1 uM, 8 h).

For SVPPVAGAPSVGQPGAGFGMPPAG [SNAP91], the protein stability index (treatment: DMSO) came out at 4.38 ± 0.24 and the protein stability index (treatment: MLN4924 1 uM, 8 h) is 4.38 ± 0.058.
